# Measured values as given in PMC11182496, “Dissecting positive selection events and immunological drives during the evolution of adeno-associated virus lineages” (PLOS Pathogens, 2024).
# B1: mouse monoclonal antibody A20 (antibody, V domains shown)
# VH: DVQLQESGPDLVKPSQSLSLTCTVTGYSITSGYTWHWIRQFPGNKQEWMGYIHFSGYTNYNPSLKSRVSITRDTSKNQFFLHLNSVTTEDTATYYCARGDYGYEWFTYWGQGTLVTVSA
# VL: DIQMTQSSSSFSVSLGDRVTITCKASEDIHNRLAWYKQKPGNAPRLLISGATSLETGVPSRFSGSGSGKDYTLSITSLQNEDVATYYCQQYWIGPFTFGSGTNLEIK
# How the values were obtained:
# [1] = molecular target: AAV2-G548 capsid (adeno-associated virus 2); experiment: ELISA; plates coated with 10^9 vector genomes of AAV variants in 0.1 M sodium bicarbonate buffer pH 9.6 overnight at 4°C; antibody serially diluted in PBS with 1% BSA, 37°C for 1.5 hours; anti-mouse IgG-HRP, OD450; EC50 from a sigmoidal fit
# [2] = molecular target: AAV2-G548 capsid (adeno-associated virus 2)
# [3] = molecular target: AAV2-E548 capsid (wild-type AAV2 capsid) (Adeno-associated virus 2, wild type …, UniProt P03135); experiment: cell-based or functional assay
# Chain of AAV2-E548 capsid (wild-type AAV2 capsid) (P03135 whole entry, looked up, the tested form may be a part): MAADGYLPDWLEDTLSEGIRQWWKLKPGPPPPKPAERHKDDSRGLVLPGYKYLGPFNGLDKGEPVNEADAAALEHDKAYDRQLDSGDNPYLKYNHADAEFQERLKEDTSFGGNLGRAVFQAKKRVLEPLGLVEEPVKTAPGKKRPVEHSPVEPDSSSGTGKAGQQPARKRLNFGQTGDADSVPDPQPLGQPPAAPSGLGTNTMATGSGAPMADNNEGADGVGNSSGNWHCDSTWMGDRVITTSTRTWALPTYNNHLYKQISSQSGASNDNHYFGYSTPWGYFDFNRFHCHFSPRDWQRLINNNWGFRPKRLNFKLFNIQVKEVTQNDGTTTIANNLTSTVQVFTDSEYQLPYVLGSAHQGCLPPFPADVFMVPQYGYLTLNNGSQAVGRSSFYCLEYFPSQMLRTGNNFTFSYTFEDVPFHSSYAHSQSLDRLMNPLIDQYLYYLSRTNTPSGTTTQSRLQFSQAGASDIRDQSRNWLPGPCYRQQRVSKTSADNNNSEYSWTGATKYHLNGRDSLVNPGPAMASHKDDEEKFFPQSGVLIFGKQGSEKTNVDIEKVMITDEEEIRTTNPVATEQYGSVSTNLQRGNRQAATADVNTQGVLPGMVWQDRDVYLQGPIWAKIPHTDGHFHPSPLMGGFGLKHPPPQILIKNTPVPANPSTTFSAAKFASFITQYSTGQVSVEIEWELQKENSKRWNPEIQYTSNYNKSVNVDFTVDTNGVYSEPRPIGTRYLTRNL
binder,measurement,setting,value
B1,OD450 at the highest A20 concentration (10 μg/ml),[1],0.132 OD450
same,"neutralization of the lacZ AAV vector's transduction of 293 cells (β-galactosidase assay), average IC50",[2],0.201 µg/mL
same,"neutralization of the lacZ AAV vector's transduction of 293 cells (β-galactosidase assay), average IC50",[3],0.2 µg/mL
